Measured values taken from patent US20140341937A1 (US Dept. of Health and Human Services, published 2014).

Columns and labels:
[1] = target: T1, CCR4 (human, UniProt P51679 1-360); assay: flow cytometry on CEM cells, anti-EDN antibody detection
T1 construct: whole, on cells; also called human CCR4; CCR4 on CEM cells
T1 sequence (looked up): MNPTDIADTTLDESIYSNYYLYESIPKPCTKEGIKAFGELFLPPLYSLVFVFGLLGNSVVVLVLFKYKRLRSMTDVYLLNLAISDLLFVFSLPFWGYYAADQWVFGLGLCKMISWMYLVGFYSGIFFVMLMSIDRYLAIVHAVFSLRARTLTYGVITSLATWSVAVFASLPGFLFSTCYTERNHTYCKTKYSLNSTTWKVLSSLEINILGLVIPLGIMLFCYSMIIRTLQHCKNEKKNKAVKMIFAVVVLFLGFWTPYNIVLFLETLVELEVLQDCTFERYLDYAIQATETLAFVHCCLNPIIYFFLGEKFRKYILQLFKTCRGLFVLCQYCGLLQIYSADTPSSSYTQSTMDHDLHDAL

[2] = target: T2, CCR8 (human, UniProt P51685 1-355); assay: flow cytometry on receptor-expressing cells
T2 construct: whole, on cells; also called human CCR8; HEK/CCR8
T2 sequence (P51685 whole entry): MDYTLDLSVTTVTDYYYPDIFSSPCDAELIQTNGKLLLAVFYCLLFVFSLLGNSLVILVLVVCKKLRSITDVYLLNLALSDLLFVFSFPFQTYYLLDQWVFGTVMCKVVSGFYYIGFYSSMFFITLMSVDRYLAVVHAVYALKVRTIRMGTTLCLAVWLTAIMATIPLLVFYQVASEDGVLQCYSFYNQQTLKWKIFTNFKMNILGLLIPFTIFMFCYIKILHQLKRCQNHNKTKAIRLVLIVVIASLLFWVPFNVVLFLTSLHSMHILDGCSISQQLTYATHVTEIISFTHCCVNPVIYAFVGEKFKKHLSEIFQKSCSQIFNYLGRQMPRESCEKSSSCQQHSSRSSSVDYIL

B1: eosinophil-derived neurotoxin (EDN) (enzyme, human, UniProt P10153 28-161, looked up)
chain: KPPQFTWAQWFETQHINMTSQQCTNAMQVINNYQRRCKNQNTFLLTTFANVVNVCGNPNMTCPSNKTRKNCHHSGSQVPLIHCNLTTPSPQNISNCRYAQTPANMFYIVACDNRDQRRDPPQYPVVPVHLDRII
notes: Unfused control protein; also called EDN alone; toxin alone
[1]
  binding result: no binding (tested: 50 µg/ml)
[2]
  binding result: no binding
